Experimental data from publication PMC11023060.

Molecular target: T1, CbAgoM (delA2;D463R;Y473A;K477C;T491H;T494S;K520G;A542D;A612D;del738-749)
T1 chain: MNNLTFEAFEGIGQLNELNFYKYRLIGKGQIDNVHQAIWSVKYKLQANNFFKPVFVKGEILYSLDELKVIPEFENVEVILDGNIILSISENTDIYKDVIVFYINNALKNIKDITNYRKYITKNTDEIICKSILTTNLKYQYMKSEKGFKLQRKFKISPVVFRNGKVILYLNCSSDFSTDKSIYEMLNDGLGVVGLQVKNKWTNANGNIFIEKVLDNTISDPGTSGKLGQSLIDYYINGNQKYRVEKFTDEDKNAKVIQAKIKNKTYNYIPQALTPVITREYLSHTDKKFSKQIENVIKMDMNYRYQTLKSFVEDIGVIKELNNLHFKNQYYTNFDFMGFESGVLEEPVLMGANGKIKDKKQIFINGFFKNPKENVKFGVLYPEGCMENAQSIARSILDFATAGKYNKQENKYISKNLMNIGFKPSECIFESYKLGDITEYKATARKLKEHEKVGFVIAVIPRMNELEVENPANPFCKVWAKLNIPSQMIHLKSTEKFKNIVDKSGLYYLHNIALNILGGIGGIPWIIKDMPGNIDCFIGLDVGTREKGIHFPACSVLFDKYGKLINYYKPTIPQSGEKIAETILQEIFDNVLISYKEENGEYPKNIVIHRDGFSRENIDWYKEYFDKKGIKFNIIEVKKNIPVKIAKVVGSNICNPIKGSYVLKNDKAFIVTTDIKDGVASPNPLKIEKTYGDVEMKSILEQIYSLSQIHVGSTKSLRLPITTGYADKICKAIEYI
Assay: fluorescence polarization

TGAGGTAGTAGGTTGTATAGT (ssDNA, 5'-phosphate) [gDNA 21 nt]
binding result: binds
